Test results reported in paper doi:10.1101/2022.01.14.476392 (bioRxiv, 2022).

Biological target: the molecule itself
Assay: BLI

B1: diol-dehydratase PduCDE (complex, Salmonella enterica)
chain 1: MRSKRFEALAKRPVNQDGFVKEWIEEGFIAMESPNDPKPSIKIVNGAVTELDGKPVSEFDLIDHFIARYGINLNRAEEVMAMDSVKLANMLCDPNVKRSEIVPLTTAMTPAKIVEVVSHMNVVEMMMAMQKMRARRTPSQQAHVTNVKDNPVQIAADAAEGAWRGFDEQETTVAVARYAPFNAIALLVGSQVGRPGVLTQCSLEEATELKLGMLGHTCYAETISVYGTEPVFTDGDDTPWSKGFLASSYASRGLKMRFTSGSGSEVQMGYAEGKSMLYLEARCIYITKAAGVQGLQNGSVSCIGVPSAVPSGIRAVLAENLICSSLDLECASSNDQTFTHSDMRRTARLLMQFLPGTDFISSGYSAVPNYDNMFAGSNEDAEDFDDYNVIQRDLKVDGGLRPVREEDVIAIRNKAARALQAVFAGMGLPPITDEEVEAATYAHGSKDMPERNIVEDIKFAQEIINKNRNGLEVVKALAQGGFTDVAQDMLNIQKAKLTGDYLHTSAIIVGDGQVLSAVNDVNDYAGPATGYRLQGERWEEIKNIPGALDPNEID
chain 2: MEINEKLLRQIIEDVLRDMKGSDKPVSFNAPAASTAPQTAAPAGDGFLTEVGEARQGTQQDEVIIAVGPAFGLAQTVNIVGLPHKSILREVIAGIEEEGIKARVIRCFKSSDVAFVAVEGNRLSGSGISIGIQSKGTTVIHQQGLPPLSNLELFPQAPLLTLETYRQIGKNAARYAKRESPQPVPTLNDQMARPKYQAKSAILHIKETKYVVTGKNPQELRVAL
chain 3: MNTDAIESMVRDVLSRMNSLQGDAPAAAPAAGGTSRSAKVSDYPLANKHPEWVKTATNKTLDDFTLENVLSNKVTAQDMRITPETLRLQASIAKDAGRDRLAMNFERAAELTAVPDDRILEIYNALRPYRSTKEELLAIADDLENRYQAKICAAFVREAAGLYVERKKLKGDD
B1 gave a Kd of 3.5 µM.
